According to the supplement of paper PMC10567573:

B1: ZNF263 (parent)
chain: EKPYKCPECGEIFAHSSNLLRHQR
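Note: lentivirally expressed fusions sorted by FACS into six bins by GFP to DsRed ratio, PSI derived from sequencing read proportions per bin multiplied by bin number.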

Variants of: B1
Assay: protein stability index of a GFP-peptide fusion (GPS, HEK-293T) (PSI 1-6); higher = more stable
Conditions: c terminus: a fixed tail appended
Work on EKTYKCPECGEIFAHSSNLLRHQR yielded a protein stability index of 2.85.
EKMYKCPECGEIFAHSSNLLRHQR gave a protein stability index of 2.78.
EKNYKCPECGEIFAHSSNLLRHQR showed a protein stability index of 1.39.
EKDYKCPECGEIFAHSSNLLRHQR showed a protein stability index of 3.11.
EKSYKCPECGEIFAHSSNLLRHQR gave a protein stability index of 2.09.
Work on EKPYKCPECGEIFAHYSNLLRHQR yielded a protein stability index of 3.26.
EKPYKCPECGEIFAHVSNLLRHQR gave a protein stability index of 2.83.
For EKPYKCPECGEIFAHPSNLLRHQR, the protein stability index was 2.81.
Work on EKPYKCPECGEIFAHQSNLLRHQR yielded a protein stability index of 2.45.
Work on EKPYKCPECGEIFAHCSNLLRHQR yielded a protein stability index of 2.73.
In the case of EKPYKCPECGEIFAHRSNLLRHQR, the protein stability index is reported as 2.3.
Work on EKPYKCPECGEIFAHWSNLLRHQR yielded a protein stability index of 3.44.
EKPYKCPECGEIFAHSSNLLRFQR gave a protein stability index of 1.66.
Variant EKPYKCPECGEIFAHSSNLLRWQR has a protein stability index of 1.23.
In the case of EKPYKCPECGEIFAHSSNLLRMQR, the protein stability index is reported as 2.64.
Work on EKPYKCPECGEIFAHSSNLLRAQR yielded a protein stability index of 2.88.
Work on EKPYKCPECGEIFAHSSNLLRSQR yielded a protein stability index of 1.89.
EKPYKCPECGEIFAHSSNLLRPQR gave a protein stability index of 1.35.
EKPYKCPECGEIFAHSSNLLRTQR gave a protein stability index of 1.43.
With EKPYKCPECGEIFAHSSNLLRKQR the protein stability index was 2.16.
With EKPYKCPECGEIFAHSSNLLRGQR the protein stability index was 1.25.
For VKPYKCPECGEIFAHSSNLLRHQR, the protein stability index was 2.45.
In the case of DKPYKCPECGEIFAHSSNLLRHQR, the protein stability index is reported as 2.94.
With QKPYKCPECGEIFAHSSNLLRHQR the protein stability index was 3.43.
With WKPYKCPECGEIFAHSSNLLRHQR the protein stability index was 1.76.
KKPYKCPECGEIFAHSSNLLRHQR showed a protein stability index of 1.83.
Variant NKPYKCPECGEIFAHSSNLLRHQR has a protein stability index of 2.31.
SKPYKCPECGEIFAHSSNLLRHQR showed a protein stability index of 2.44.
Variant TKPYKCPECGEIFAHSSNLLRHQR has a protein stability index of 2.65.
Variant EKPIKCPECGEIFAHSSNLLRHQR has a protein stability index of 2.76.
Work on EKPLKCPECGEIFAHSSNLLRHQR yielded a protein stability index of 2.47.
Variant EKPWKCPECGEIFAHSSNLLRHQR has a protein stability index of 2.29.
Variant EKPSKCPECGEIFAHSSNLLRHQR has a protein stability index of 2.52.
EKPGKCPECGEIFAHSSNLLRHQR showed a protein stability index of 2.85.
Variant EKPCKCPECGEIFAHSSNLLRHQR has a protein stability index of 2.48.
Work on EKPRKCPECGEIFAHSSNLLRHQR yielded a protein stability index of 2.48.
EKPMKCPECGEIFAHSSNLLRHQR gave a protein stability index of 1.84.
Variant EKPYKCPECGEIFAHSSNLERHQR has a protein stability index of 2.75.
EKPYKCPECGEIFAHSSNLARHQR gave a protein stability index of 1.79.
In the case of EKPYKCPECGEIFAHSSNLRRHQR, the protein stability index is reported as 2.59.
In the case of EKPYKCPECGEIFAHSSNLHRHQR, the protein stability index is reported as 3.79.
With EKPYKCPECGEIFAHSSNLKRHQR the protein stability index was 2.62.
With EKPYKCPECGEIFAHSSNLTRHQR the protein stability index was 2.66.
EKPYKCPECGEIFAHSSNLDRHQR showed a protein stability index of 3.29.
For EKPYKCPECGEIFAHSSNLLAHQR, the protein stability index was 3.84.
EKPYKCPECGEIFAHSSNLLLHQR showed a protein stability index of 2.82.
EKPYKCPECGEIFAHSSNLLEHQR showed a protein stability index of 4.38.
EKPYKCPECGEIFAHSSNLLGHQR showed a protein stability index of 2.01.
Variant EKPYKCPECGEIFAHSSNLLYHQR has a protein stability index of 3.36.
EKPYKCPECGEIFAHSSNLLDHQR showed a protein stability index of 4.24.
Variant EKPYKCPECGEIFAHSSNLLWHQR has a protein stability index of 3.43.
With EKPYKCPECGEIFAHSSNLLVHQR the protein stability index was 2.85.
Variant EKPYKCPECGEIFAHSSWLLRHQR has a protein stability index of 2.06.
For EKPYKCPECGEIFAHSSTLLRHQR, the protein stability index was 2.76.
For EKPYKCPECGEIFAHSSHLLRHQR, the protein stability index was 4.44.
EKPYKCPECGEIFAHSSYLLRHQR gave a protein stability index of 3.37.
EKPYKCPECGEIFAHSSELLRHQR gave a protein stability index of 4.7.
EKPYKCPECGEIFAHSSVLLRHQR showed a protein stability index of 4.54.
Work on EKPYKCPECGEIFAHSSILLRHQR yielded a protein stability index of 2.37.
For EKPYKTPECGEIFAHSSNLLRHQR, the protein stability index was 3.45.
With EKPYKWPECGEIFAHSSNLLRHQR the protein stability index was 2.47.
In the case of EKPYKHPECGEIFAHSSNLLRHQR, the protein stability index is reported as 2.71.
With EKPYKLPECGEIFAHSSNLLRHQR the protein stability index was 3.19.
EKPYKFPECGEIFAHSSNLLRHQR gave a protein stability index of 3.46.
EKPYKNPECGEIFAHSSNLLRHQR showed a protein stability index of 3.74.
Variant EKPYKKPECGEIFAHSSNLLRHQR has a protein stability index of 3.03.
Variant EKPYKCPECGEIFAHSPNLLRHQR has a protein stability index of 2.66.
EKPYKCPECGEIFAHSINLLRHQR gave a protein stability index of 2.89.
EKPYKCPECGEIFAHSMNLLRHQR gave a protein stability index of 2.12.
For EKPYKCPECGEIFAHSRNLLRHQR, the protein stability index was 2.42.
Variant EKPYKCPECGEIFAHSCNLLRHQR has a protein stability index of 4.32.
With EKPYKCPECGEIFAHSTNLLRHQR the protein stability index was 2.06.
In the case of EKPYKCPECGEIFATSSNLLRHQR, the protein stability index is reported as 3.55.
Work on EKPYKCPECGEIFARSSNLLRHQR yielded a protein stability index of 2.31.
EKPYKCPECGEIFAQSSNLLRHQR gave a protein stability index of 3.15.
With EKPYKCPECGEIFAMSSNLLRHQR the protein stability index was 1.56.
With EKPYKCPECGEIFASSSNLLRHQR the protein stability index was 4.34.
Variant EKPYKCPECGEIFAYSSNLLRHQR has a protein stability index of 1.8.
Variant EEPYKCPECGEIFAHSSNLLRHQR has a protein stability index of 3.09.
With ERPYKCPECGEIFAHSSNLLRHQR the protein stability index was 2.64.
For EIPYKCPECGEIFAHSSNLLRHQR, the protein stability index was 1.68.
EHPYKCPECGEIFAHSSNLLRHQR gave a protein stability index of 3.36.
EPPYKCPECGEIFAHSSNLLRHQR showed a protein stability index of 3.37.
EDPYKCPECGEIFAHSSNLLRHQR gave a protein stability index of 3.24.
EWPYKCPECGEIFAHSSNLLRHQR gave a protein stability index of 2.32.
With EFPYKCPECGEIFAHSSNLLRHQR the protein stability index was 3.99.
With EYPYKCPECGEIFAHSSNLLRHQR the protein stability index was 3.34.
With EKPYKCPECGEIFAHSSNSLRHQR the protein stability index was 2.61.
Variant EKPYKCPECGEIFAHSSNQLRHQR has a protein stability index of 1.78.
EKPYKCPECGEIFAHSSNELRHQR gave a protein stability index of 1.91.
Variant EKPYKCPECGEIFAHSSNNLRHQR has a protein stability index of 1.64.
For EKPYKCPECGEIFAHSSNCLRHQR, the protein stability index was 4.49.
In the case of EKPYKCPECGEIFAHSSNYLRHQR, the protein stability index is reported as 2.54.
EKPYKCPECGEIFAHSSNALRHQR gave a protein stability index of 1.84.
